Data published in US20240182536A1 (MURAL ONCOLOGY, published 2024).
Like-named read-outs stand apart in the source and are kept apart here.

Assays:
[1] = molecular target: T1, human IL-18 binding protein (IL-18BP) (human, UniProt O95998 31-194); assay: cell-based or functional assay
T1 sequence (looked up): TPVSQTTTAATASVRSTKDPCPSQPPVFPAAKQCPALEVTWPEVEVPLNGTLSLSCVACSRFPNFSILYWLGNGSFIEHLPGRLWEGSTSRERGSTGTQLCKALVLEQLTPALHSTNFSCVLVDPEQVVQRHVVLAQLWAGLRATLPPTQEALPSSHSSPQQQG

[2] = molecular target: T2, IL-18 receptors on HEK-Blue IL-18 reporter cells (InvivoGen) (UniProt Q13478 19-541; O95256 20-599); assay: cell-based or functional assay
T2 sequence (looked up) 1: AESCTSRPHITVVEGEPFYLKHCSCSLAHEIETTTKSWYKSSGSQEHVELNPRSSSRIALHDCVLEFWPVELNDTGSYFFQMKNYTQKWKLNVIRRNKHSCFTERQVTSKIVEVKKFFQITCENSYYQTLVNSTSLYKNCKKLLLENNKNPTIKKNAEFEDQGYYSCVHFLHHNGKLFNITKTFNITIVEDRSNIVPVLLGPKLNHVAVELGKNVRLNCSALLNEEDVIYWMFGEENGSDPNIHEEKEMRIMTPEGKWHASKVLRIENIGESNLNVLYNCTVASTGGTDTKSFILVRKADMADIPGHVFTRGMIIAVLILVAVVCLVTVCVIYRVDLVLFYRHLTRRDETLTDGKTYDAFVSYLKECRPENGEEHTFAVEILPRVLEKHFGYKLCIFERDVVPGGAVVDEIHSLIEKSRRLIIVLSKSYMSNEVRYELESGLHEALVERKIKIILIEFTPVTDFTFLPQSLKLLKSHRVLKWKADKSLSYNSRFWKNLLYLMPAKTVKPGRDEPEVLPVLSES
T2 sequence (looked up) 2: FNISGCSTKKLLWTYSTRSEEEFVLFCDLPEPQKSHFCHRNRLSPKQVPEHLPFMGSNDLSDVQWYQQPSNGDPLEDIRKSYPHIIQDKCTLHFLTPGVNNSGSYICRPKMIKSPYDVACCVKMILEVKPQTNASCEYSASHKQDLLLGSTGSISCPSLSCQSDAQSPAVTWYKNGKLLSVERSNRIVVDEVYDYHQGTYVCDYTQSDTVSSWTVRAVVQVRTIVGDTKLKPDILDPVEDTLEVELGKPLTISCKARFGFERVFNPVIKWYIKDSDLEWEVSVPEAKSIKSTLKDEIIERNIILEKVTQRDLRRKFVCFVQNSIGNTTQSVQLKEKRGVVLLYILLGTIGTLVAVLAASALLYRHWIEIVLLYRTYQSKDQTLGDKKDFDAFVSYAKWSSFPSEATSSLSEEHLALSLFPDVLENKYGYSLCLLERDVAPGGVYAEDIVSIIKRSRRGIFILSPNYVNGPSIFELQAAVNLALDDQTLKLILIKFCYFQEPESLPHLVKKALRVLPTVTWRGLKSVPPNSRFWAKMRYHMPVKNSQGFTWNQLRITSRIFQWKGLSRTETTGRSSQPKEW

[3] = molecular target: T1, human IL-18 binding protein (IL-18BP); assay: Octet BLI
Protocol: (§1) Octet 96red instrument was used to determine affinities of IL18 proteins to BP or receptors. 5-10 ug/ml analyte proteins were used for loading on Sartorius tips (AHC or SA). […] 120-180 s loading, 200 s association and 800 s dissociation were used for kinetics. 3-7 data points were used to calculate affinities.

[4] = molecular target: T3, human IL-18 receptor alpha (IL-18Rα) (human, UniProt Q13478 19-329, limits assumed); assay: Octet BLI
T3 construct: also called hu IL-18Ra; IL-18R alpha
T3 sequence (looked up): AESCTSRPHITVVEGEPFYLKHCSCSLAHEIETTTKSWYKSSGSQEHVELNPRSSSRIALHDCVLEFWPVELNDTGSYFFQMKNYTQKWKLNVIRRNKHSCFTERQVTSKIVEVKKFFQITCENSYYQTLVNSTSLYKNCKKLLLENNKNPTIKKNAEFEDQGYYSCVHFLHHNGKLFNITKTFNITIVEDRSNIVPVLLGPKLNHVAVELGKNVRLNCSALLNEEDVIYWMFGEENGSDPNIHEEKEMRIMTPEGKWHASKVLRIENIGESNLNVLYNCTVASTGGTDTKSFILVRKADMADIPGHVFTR
Protocol: as §1

[5] = molecular target: T4, human IL-18R alpha/beta pair (IL-18Rab) (human, UniProt Q13478 19-329; O95256 20-356); assay: Octet BLI
T4 construct: also called hu IL-18Rab
T4 sequence (looked up) 1: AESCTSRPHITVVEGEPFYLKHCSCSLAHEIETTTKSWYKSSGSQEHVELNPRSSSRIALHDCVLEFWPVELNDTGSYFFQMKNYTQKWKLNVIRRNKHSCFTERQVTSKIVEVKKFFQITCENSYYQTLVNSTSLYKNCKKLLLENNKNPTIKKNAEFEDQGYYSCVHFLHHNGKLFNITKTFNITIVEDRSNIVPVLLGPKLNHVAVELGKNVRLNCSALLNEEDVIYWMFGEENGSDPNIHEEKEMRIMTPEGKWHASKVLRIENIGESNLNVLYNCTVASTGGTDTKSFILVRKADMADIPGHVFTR
T4 sequence (looked up) 2: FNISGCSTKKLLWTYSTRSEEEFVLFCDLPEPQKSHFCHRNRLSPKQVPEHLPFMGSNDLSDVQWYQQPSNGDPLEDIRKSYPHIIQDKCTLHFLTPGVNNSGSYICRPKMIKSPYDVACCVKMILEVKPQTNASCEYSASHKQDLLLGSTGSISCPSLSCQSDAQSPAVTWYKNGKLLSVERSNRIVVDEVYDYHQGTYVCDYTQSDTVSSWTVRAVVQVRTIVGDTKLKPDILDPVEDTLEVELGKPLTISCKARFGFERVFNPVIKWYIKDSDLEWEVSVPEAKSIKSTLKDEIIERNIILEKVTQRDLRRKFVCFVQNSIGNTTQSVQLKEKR
Protocol: as §1

[6] = molecular target: T1, human IL-18 binding protein (IL-18BP); assay: cell-based or functional assay; remark: listed apart in the source
[7] = molecular target: T2, IL-18 receptors on HEK-Blue IL-18 …; assay: cell-based or functional assay; remark: listed apart in the source
[8] = molecular target: T1, human IL-18 binding protein (IL-18BP); assay: cell-based or functional assay; remark: listed apart in the source
[9] = molecular target: T5, IL-18 receptor (IL-18Rα and IL-18Rβ) (UniProt Q13478 19-541; O95256 20-599, limits assumed); assay: cell-based or functional assay
T5 sequence (looked up) 1: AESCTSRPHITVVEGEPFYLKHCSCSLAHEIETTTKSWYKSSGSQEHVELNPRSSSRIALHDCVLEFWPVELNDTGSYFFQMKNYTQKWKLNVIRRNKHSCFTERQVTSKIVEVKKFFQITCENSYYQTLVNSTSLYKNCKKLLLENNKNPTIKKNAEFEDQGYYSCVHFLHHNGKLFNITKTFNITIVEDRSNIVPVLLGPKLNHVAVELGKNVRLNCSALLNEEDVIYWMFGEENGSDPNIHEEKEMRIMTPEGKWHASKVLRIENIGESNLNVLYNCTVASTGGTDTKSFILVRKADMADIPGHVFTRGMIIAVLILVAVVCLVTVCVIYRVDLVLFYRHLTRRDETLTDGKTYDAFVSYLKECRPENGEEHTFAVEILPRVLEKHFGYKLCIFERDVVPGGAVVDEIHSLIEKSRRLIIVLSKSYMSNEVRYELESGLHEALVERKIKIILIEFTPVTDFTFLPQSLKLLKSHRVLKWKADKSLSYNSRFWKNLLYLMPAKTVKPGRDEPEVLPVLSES
T5 sequence (looked up) 2: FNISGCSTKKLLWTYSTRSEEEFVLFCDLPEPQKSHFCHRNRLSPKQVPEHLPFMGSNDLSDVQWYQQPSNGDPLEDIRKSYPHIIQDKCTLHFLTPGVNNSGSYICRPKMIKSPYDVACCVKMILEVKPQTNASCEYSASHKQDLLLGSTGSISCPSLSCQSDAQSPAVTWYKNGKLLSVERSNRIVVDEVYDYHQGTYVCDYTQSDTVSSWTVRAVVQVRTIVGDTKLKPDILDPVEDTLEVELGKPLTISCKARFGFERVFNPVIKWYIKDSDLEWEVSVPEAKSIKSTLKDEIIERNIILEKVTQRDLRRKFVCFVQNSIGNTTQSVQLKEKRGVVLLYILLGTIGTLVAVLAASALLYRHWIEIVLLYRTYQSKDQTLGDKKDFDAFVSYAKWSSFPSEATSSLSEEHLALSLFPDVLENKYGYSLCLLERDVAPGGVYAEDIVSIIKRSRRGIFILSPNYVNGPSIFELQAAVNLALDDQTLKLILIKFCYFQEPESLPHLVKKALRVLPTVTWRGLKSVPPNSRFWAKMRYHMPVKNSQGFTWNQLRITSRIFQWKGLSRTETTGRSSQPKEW

[10] = molecular target: T1, human IL-18 binding protein (IL-18BP); assay: Octet BLI; remark: listed apart in the source
Protocol: as §1
Select G3/K53-substitution containing IL-18 variants and select G3/K53/N91-substitution containing TL-18 variants were tested for activity in the HEK-blue activity assay and for binding affinity to IL-18BP. As shown in the data of Table 15 and Table 16 below, each variant had similar or better activity than WT IL-18, and retained substantial activity in the presence of IL-18BP.

[11] = molecular target: T1, human IL-18 binding protein (IL-18BP); assay: Octet BLI; remark: listed apart in the source
[12] = molecular target: T3, human IL-18 receptor alpha (IL-18Rα); assay: Octet BLI; remark: listed apart in the source
[13] = molecular target: T4, human IL-18R alpha/beta pair (IL-18Rab); assay: Octet BLI; remark: listed apart in the source
[14] = molecular target: T1, human IL-18 binding protein (IL-18BP); assay: cell-based or functional assay; remark: listed apart in the source
[15] = molecular target: T2, IL-18 receptors on HEK-Blue IL-18 …; assay: cell-based or functional assay; remark: listed apart in the source
[16] = molecular target: T5, IL-18 receptor (IL-18Rα and IL-18Rβ); assay: cell-based or functional assay; remark: listed apart in the source
[17] = molecular target: T1, human IL-18 binding protein (IL-18BP); assay: cell-based or functional assay; remark: listed apart in the source
[18] = molecular target: T2, IL-18 receptors on HEK-Blue IL-18 …; assay: cell-based or functional assay; remark: listed apart in the source

B1: IL-18 variant G3V, M60K, D157E (ligand)
chain: YFVKLESKLSVIRNLNDQVLFIDQGNRPLFEDMTDSDMRDNAPRTIFIISMYKDSQPRGKAVTISVKSEKISTLSSENKIISFKEMNPPDNIKDTKSDIIFFQRSVPGHDNKMQFESSSYEGYFLASEKERDLFKLILKKEDELGDRSIMFTVQNEE
- Fold Change (BP/NO BP), 50 nM BP [1]: 1.74 fold
- Fold Change (BP/NO BP), 300 nM BP [1]: 3.74 fold
- HEK-Blue EC50 pM, +50 nM BP [1]: 0.14 pM
- HEK-blue EC50 (pM) + 300 nM BP [1]: 0.6 pM
- HEK-Blue EC50 pM, NO BP (50 nM BP run) [2]: 0.08 pM
- HEK-Blue EC50 pM, NO BP (300 nM BP run) [2]: 0.16 pM
- Kd [3]: 87 nM
- Kd [4]: 43 nM
- Kd [5]: 0.13 nM
- HEK-Blue Activity Assay Ec50 (pM), +300 nM hu IL-18BP [6]: 0.6 pM
- HEK-Blue Activity Assay Ec50 (pM), -hu IL-18BP [7]: 0.16 pM
- EC50 pM, IFN gamma expression in PBMCs, + 300 nM BP [8]: 13 pM
- EC50 pM, IFN gamma expression in PBMCs, no BP [9]: 6.61 pM

B2: IL-18 variant G3E, K53S (ligand)
chain: YFEKLESKLSVIRNLNDQVLFIDQGNRPLFEDMTDSDMRDNAPRTIFIISMYSDSQPRGMAVTISVKSEKISTLSSENKIISFKEMNPPDNIKDTKSDIIFFQRSVPGHDNKMQFESSSYEGYFLASEKERDLFKLILKKEDELGDRSIMFTVQNED
- Kd [10]: 396 nM
- koff [10]: 0.0311 s⁻¹
- kon [10]: 78500 M⁻¹ s⁻¹
- Kd [11]: 396 nM
- Kd [12]: 8920 nM
- Kd [13]: 0.31 nM
- HEK-Blue Ec50 (pM), +IL-18BP (50 nM) [14]: 4.41 pM
- HEK-Blue Ec50 (pM), -IL-18BP [15]: 2.69 pM
- EC50 pM, IFN gamma expression in PBMCs [16]: 517 pM
- HEK-Blue Activity Assay Ec50 (pM), +50 nM hu IL-18BP [17]: 4.41 pM
- HEK-Blue Activity Assay Ec50 (pM), -hu IL-18BP [18]: 2.69 pM
